From US20050265970A1 (UNIVERSITY OF CHICAGO, published 2005)
Ends that are not written are not given here.

T1: GST-Gadd45β (full-length murine Gadd45β directly fused to GST) (murine, UniProt P22339 1-160)
T1 construct: range 1-160; Made in E. coli BL21, on glutathione-sepharose beads in pull-downs; purified protein in kinase assays; not shown: glutathione S-transferase encoded by the pGEX-3X vector
T1 sequence (looked up): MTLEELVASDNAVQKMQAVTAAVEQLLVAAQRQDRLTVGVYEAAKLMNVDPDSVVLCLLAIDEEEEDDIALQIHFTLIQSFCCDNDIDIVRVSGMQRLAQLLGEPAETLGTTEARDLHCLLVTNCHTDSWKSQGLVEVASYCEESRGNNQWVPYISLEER

T2: Gadd45β (1-68) (EcoRV digestion), in vitro translated as GFP fusion (murine, UniProt P22339 1-68, 35S-methionine label)
T2 construct: range 1-68; not shown: GFP of pEGFP-N1 (Clontech) with a short oligonucleotide-encoded linker
T2 sequence (looked up): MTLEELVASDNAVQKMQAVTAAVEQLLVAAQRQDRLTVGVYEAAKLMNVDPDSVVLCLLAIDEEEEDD

T3: endogenous MEKK1 of 3DO cells (UniProt P53349 2-1493, limits assumed)
T3 sequence (looked up): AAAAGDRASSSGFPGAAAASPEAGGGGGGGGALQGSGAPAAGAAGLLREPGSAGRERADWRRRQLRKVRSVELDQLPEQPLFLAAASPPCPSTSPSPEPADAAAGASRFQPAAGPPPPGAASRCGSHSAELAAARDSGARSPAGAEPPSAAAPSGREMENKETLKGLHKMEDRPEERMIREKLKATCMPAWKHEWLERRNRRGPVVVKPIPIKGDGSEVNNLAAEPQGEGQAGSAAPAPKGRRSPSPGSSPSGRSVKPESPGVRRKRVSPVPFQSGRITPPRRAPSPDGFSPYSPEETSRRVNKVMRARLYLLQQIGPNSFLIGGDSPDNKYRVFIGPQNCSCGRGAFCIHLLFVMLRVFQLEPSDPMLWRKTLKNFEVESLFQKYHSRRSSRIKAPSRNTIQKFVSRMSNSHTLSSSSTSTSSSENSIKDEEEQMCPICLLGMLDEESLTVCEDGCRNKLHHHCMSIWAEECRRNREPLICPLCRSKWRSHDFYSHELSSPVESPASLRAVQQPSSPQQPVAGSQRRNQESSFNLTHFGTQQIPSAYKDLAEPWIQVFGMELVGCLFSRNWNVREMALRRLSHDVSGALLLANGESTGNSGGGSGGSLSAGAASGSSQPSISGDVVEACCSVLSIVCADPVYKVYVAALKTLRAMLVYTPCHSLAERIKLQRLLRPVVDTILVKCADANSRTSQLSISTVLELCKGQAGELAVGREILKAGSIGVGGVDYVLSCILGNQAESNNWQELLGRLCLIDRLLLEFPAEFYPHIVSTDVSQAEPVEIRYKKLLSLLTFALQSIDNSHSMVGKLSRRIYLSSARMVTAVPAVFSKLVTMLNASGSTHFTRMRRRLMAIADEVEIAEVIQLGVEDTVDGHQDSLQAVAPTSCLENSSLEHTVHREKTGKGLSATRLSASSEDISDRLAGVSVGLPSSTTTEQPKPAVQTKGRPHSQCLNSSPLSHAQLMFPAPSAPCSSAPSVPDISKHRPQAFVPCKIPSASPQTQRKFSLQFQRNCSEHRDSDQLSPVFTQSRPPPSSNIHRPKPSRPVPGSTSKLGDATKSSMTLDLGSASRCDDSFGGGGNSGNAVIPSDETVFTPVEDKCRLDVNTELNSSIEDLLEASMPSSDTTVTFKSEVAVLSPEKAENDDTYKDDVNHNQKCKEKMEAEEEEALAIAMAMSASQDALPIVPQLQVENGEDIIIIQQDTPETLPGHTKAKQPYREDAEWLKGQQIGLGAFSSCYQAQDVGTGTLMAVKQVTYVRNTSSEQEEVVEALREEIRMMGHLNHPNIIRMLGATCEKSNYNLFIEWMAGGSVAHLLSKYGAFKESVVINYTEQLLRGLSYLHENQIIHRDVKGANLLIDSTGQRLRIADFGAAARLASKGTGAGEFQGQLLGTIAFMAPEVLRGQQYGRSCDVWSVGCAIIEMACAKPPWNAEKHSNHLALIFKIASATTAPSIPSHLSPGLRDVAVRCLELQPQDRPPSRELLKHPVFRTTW

B1: MKK7 peptide 2 (aa 142-166 of MKK7/JNKK2), in vitro translated, fused to eGFP (peptide)
chain: TGHVIAVKQMRRSGNKEENKRILMD
modifications: also: 35S-methionine label, place not given here, eGFP fusion, side not given here
notes: not shown: enhanced green fluorescent protein (eGFP, Clontech) fusion partner
B2: Gadd45β (114-160), in vitro translated as GFP fusion (other, murine, UniProt P22339 114-160, looked up)
chain: ARDLHCLLVTNCHTDSWKSQGLVEVASYCEESRGNNQWVPYISLEER
modifications: cysteine pairing not given here; also: GFP fusion, letters not given here, 35S-methionine label
notes: The two places differ by one residue at the N-terminal limit; also called Gadd45β(113-160) in the methods; not shown: GFP of pEGFP-N1 (Clontech) with a short oligonucleotide-encoded linker
B3: FL-JNKK2, JNKK2 (1-401; FL), 35S-labeled in vitro translated full-length human JNKK2/MKK7 (enzyme)
chain: MAASSLEQKLSRLEAKLKQENREARRRIDLNLDISPQRPRPTLQLPLANDGGSRSPSSESSPQHPTPPARPRHMLGLPSTLFTPRSMESIEIDHKLQEIMKQTGYLTIGGQRYQAEINDLENLGEMGSGTCGPVWKMRFRKTGHVIAVKQMRRSGNKEENKRILMDLDVVLKSHDCPYIVQCFGTFITNTDVFIAMELMGTCAEKLKKRMQGPIPERILGKMTVAIVKALYYLKEKHGVIHRDVKPSNILLDERGQIKLCDFGISGRLVDSKAKTRSAGCAAYMAPERIDPPDPTKPDYDIRADVWSLGISLVELATGQFPYKNCKTDFEVLTKVLQEEPPLLPGHMGFSGDFQSFVKDCLTKDHRKRPKYNKLLEHSFIKRYETLEVDVASWFKDVMAKT
modifications: 35S-methionine label
notes: Reticulocyte lysate translation from pBS-JNKK2; also called full-length MKK7; SacII (FL)
B4: GST-MKK7 (GST-JNKK2; human JNKK2 in pGEX-2T) (enzyme)
chain: B3 chain
notes: On glutathione beads in pull-downs; also called recombinant JNKK2; not shown: glutathione S-transferase encoded by the pGEX-2T vector
B5: Gadd45β in cells (untagged full-length: endogenous in 3DO cells and MEFs, or stably expressed in 3DO-IκBαM-Gadd45β clones) (other, UniProt P22339 1-160, looked up)
chain: T1 sequence (looked up)
notes: also called endogenous Gadd45β

Assays:
[1] = molecular target: T1, GST-Gadd45β (full-length murine Gadd45β …); test: GST pull-down of 35S-labeled in vitro translated MKK7 peptides
[2] = molecular target: B4; test: GST pull-down with GST-JNKK2 beads and 35S-labeled in vitro translated Gadd45β truncations
[3] = molecular target: T4, GST (glutathione-S-transferase, control) (UniProt P08515 1-218 = GST); test: GST pull-down of 35S-labeled in vitro translated protein
T4 construct: Control beads in GST pull-downs
T4 sequence (P08515 whole entry): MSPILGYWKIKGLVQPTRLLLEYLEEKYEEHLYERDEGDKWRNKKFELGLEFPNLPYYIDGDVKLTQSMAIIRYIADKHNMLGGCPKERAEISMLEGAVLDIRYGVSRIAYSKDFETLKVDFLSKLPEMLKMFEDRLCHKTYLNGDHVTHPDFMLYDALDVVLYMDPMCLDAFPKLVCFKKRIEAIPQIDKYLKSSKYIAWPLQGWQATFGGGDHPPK
Experimental: Binding assays were performed according to standard procedures, and ³⁵S-labeled proteins that bound to beads, as well as 2 μl of each in vitro translation mix (input), were then resolved by SDS polyacrylamide gel electrophoresis.

[4] = molecular target: T2, Gadd45β (1-68) (EcoRV digestion), in …; test: GST pull-down with GST-JNKK2 beads and 35S-labeled in vitro translated Gadd45β truncations
[5] = molecular target: T3, endogenous MEKK1 of 3DO cells; test: co-immunoprecipitation of endogenous proteins from 3DO cells

Binder: B1
binding result [1]: no binding

Binder: B2
binding result [2]: no binding

Binder: B3
binding result [3]: no binding

Binder: B4
binding result [4]: no binding

Binder: B5
binding result [5]: no binding
